Columns and labels:
[1] = molecular target: T1, human PD-L2 expressed on CHO cells (CHO-hPD-L2 cells) (human, UniProt Q9BQ51 20-273); experiment: flow cytometry cell binding
T1 chain: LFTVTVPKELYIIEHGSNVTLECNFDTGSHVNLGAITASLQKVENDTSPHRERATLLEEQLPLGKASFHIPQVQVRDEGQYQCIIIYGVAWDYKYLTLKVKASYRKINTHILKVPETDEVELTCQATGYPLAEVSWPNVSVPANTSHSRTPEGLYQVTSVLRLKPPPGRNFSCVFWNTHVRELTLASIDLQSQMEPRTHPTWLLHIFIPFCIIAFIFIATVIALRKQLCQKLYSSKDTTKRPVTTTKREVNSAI

[2] = molecular target: human PD-L1 expressed on CHO cells (CHO-hPD-L1 cells) (human, UniProt Q9NZQ7 19-290); experiment: flow cytometry cell binding
human PD-L1 expressed on CHO cells (CHO-hPD-L1 cells), sequence (Q9NZQ7 19-290): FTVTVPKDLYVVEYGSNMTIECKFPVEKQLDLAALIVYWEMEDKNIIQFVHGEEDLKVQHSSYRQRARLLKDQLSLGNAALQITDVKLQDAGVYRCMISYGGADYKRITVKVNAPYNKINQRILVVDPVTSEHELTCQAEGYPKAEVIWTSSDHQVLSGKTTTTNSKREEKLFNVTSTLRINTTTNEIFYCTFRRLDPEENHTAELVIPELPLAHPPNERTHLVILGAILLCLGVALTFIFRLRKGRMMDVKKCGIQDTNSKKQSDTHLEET

B1: anti-PD-L1/PD-L2 bispecific antibody Fc fusion protein Bi-203-204 (bispecific antibody, V domains shown)
V domain 1: QVQLVESGGGLVKPGGSLRLSCAASGHTFIIYAIGWFRQAPGKGLEFVATINWSGSMTNYADSVKGRFTISRDNAKNTVYLQMNSLKPDDTAVYYCAAYVGATISTAHSRYDYWGQGTLVTVSS
V domain 2: EVQLVESGGGLVQPGGSLRLSCAASGRTFSSMTIGWFRQAPGKGLEFVSGIGWTSGLTVYADSVKGRFTISRDNAKNSMYLQMNSLRAEDTAVYYCAADSMNRGQFDYWGQGTLVTVSS
B1 gave an EC50 [1] of 1.25 nM and an EC50 [2] of 3.79 nM.
